According to US20180258407:

Columns and labels:
[1] = test system: HDAC4 expressed in Saccharomyces cerevisiae from a constitutively active promoter (pNOP)
[2] = test system: flag tagged HDAC4 (overexpressed in neonatal rat cardiomyocytes)

| Substance | cleavage of HDAC4 in Saccharomyces cerevisiae, westernblot analysis [1] | HDAC4 cleavage, immunoblot [2] |
| --- | --- | --- |
| ABHD5 expressed in Saccharomyces cerevisiae from a Galactose inducible promoter (pGAL) | By overexpression either together or with backbone vector in Saccharomyces cerevisiae we found cleavage of HDAC4, confirmed by westernblot analysis. |  |
| gfp tagged abhd5 (adenoviral overexpression in neonatal rat ventricular myocytes) |  | Overexpressed flag tagged HDAC4 was cleaved whenever gfp tagged abhd5 was coexpressed. |
